Laboratory results: US9102758B2, “Insulin-oligomer conjugates, formulations and uses thereof” (priority 2004, dated 2015)
Like-named read-outs stand apart in the source and are kept apart here.

Tests used:
chymotrypsin enzyme [1] = system: chymotrypsin enzyme
Method: Lyophilized chymotrypsin enzyme was resuspended in 1 mM HCl to a concentration of ˜7.53 U/mL. A 1.53 mL aliquot of each sample was added to sample tubes and 0.850 mL into control tubes. Samples were tested in duplicate along with four control tubes per sample. […] Then 17 μL of chymotrypsin enzyme was added to each sample tube. Five μL of 1 mM HCl was added to each control tube. Immediately following the additions, 200 μL was removed from the sample and the control tubes and placed into 50 μL of 1% TFA previously aliquoted out into centrifuge tubes. This sample serves as T=0.
(§1) The control procedure was repeated at the following intervals: 0, 8, 15, 30 minutes. For T-type and R-type samples, the procedure was repeated at the following intervals: 0, 5, 8, 12, 30, 40 and 60 minutes. The control procedure for the Zn complexes was repeated at the following intervals: 0, 12, 40 and 60 minutes. Samples were stored at −20° C. until analysis can occur via HPLC. HPLC was performed to determine percent degradation relative to the respective T=0 minute for each digest. The natural log of the percent remaining was plotted versus time and a linear regression run for each digest. The half life was calculated using the equation: t=−0.693/slope.

[2] = assay type: physicochemical
Method: Two hundred microliters of 0.1M Phosphate Buffer Saline (PBS, filtered, pH=7.4) was added to a 1 mL conical reaction vial. To this vial, a small amount of sample was added slowly until saturation is observed. Periodically, the solution was vortexed. […] After centrifugation, 10 μL of the sample was removed from the supernatant and diluted in 490 μL buffer (0.1 M PBS). This diluted sample was analyzed via HPLC to determine its' concentration.

chymotrypsin enzyme [3] = test: In vitro enzyme resistance (chymotrypsin) of HIM2 and its complexes; conditions: chymotrypsin digest, 37° C., pH about 7.4
Method: Lyophilized chymotrypsin enzyme was resuspended in 1 mM HCl to a concentration of 7.53 U/mL. A 1.53 mL aliquot of each sample was added to sample tubes and 0.850 mL into control tubes. Samples were tested in duplicate along with four control tubes per sample. […] Then 17 μL of chymotrypsin enzyme was added to each sample tube. Five μL of 1 mM HCl was added to each control tube. Immediately following the additions, 200 μL was removed from the sample and the control tubes and placed into 50 μL of 1% TFA previously aliquoted out into centrifuge tubes. This sample serves as T=0.
as §1

male CF-1 mice = test: Extended Mouse Blood Glucose Assay (MBGA); assay type: in vivo; conditions: subcutaneous
Method: Six paired-dose groups of 5 male CF-1 mice (Charles River Laboratories; 25-30 g) received subcutaneous injections of either the insulin compound conjugate (test article) or recombinant human insulin. The test article was reconstituted with phosphate buffer (0.01 M, a pH of about 7.4) containing 0.1% w/w bovine serum albumin and dosed at 100, 66.6, 43.3, 30, 20, and 13.3 μg/kg. Insulin compound was reconstituted with phosphate buffer (0.01 M, a pH of about 7.4) containing 0.1% w/w bovine serum albumin and dosed at 50, 33.3, 21.7, 15, 10, and 6.7 μg/kg. […] Blood samples were collected in heparin tubes for glucose assay. If glucose assay was delayed, the tubes were stored in ice water and re-warmed to room temperature before assay.
Plasma glucose was measured with a glucometer (e.g., One Touch® Basic; Lifescan), which was calibrated at the beginning of each day of use according to the manufacturer's instructions. The potency of the insulin compound conjugate was then calculated relative to the standard curve that was generated for the recombinant human insulin response. Calculations were based upon the assumption that recombinant human insulin has a potency of 27.4 IU/mg.

With “IN105 (T-type zinc complex): T-type Zn complex of IN105, 1.88% w/w zinc; same zinc content as reaction 9.5.3” the T half (chymotrypsin enzyme [1]) was 54.8 min.

For “Reaction 9.6.2: R-Type Zn Complex of IN105 Conjugate at 5 g Scale”, the “Solubility” value [2] was 10 to 25 mg/mL.

“HIM2 (R-type zinc complex): R-type zinc complex of HIM2, 1.1% w/w zinc” showed a T half (chymotrypsin enzyme [3]; 0.3 mg/mL protein) of 19 to 21 min.

For “HIM2 (R-type zinc/protamine complex): R-type zinc complex of HIM2 with protamine”, the T half (chymotrypsin enzyme [3]; 0.6 mg/ml protein) was 95 to 120 min and the “glucose lowering effect at 30 and 90 minutes post dose” value (male CF-1 mice) was “greater glucose reduction at 30 minutes than 90 minutes”.

With “Reaction 9.3.3: R-type Zn Complex of HIM2 with Protamine at Acidic pH” the “Solubility” value ([2]; pH 7.4) was 36.78 mg/mL.

In the case of “Reaction 9.5.1: T-Type Zn Complex of IN105 Monoconjugate (10 g/L Concentration)”, the “Solubility (mg/mL) in a pH of about 7.4, 0.1M phosphate buffer” value [2] is reported as 80-85 mg/mL.

With “HIM2: human insulin monoconjugate with a modifying moiety coupled at B29” the “biopotency (MBGA) on complexation with Zn++” value (male CF-1 mice; plasma glucose 30 minutes post dose, relative to recombinant human insulin) was “not significantly reduced”.

In the case of “Reaction 9.5.2: T-Type Zn Complex of IN105 Monoconjugate (1 g Scale)”, the “Solubility (mg/mL) in a pH of about 7.4, 0.1M phosphate buffer” value [2] is reported as 10-20 mg/mL.

With “HIM2 (T-type zinc complex): T-type zinc complex of HIM2, 0.55% w/w zinc” the T half (chymotrypsin enzyme [3]; 0.3 mg/mL protein) was 12 to 15 min.
